US9273320B2, “Method of producing a sweet protein” (NOVOZYMES A/S, priority 2009, dated 2016)

B1: brazzein: Sweet protein of Pentadiplandra brazzeana Baillon or a recombinant form; tested batch secreted from Aspergillus oryzae (SEQ ID NO: 2) (protein)
chain: MQFTTILSIGITVFGLANTGAFAAPQPVPEAYAVSDPEAHPDDFAGMDANQLQKREDKCKKVYENYPVSKCQLANQCNYDCKLDKHARSGECFYDEKRNLQCICDYCEY

Tests used:
[1] = Lamphear et al. 2005; cited from earlier work
[2] = test system: test taste panel of six persons; experiment: Sensory evaluation of the sweetness of brazzein compared to sucrose, in 20% skim milk; format: in vivo, human; settings: 50 mg/l brazzein in 20% skim milk
Source text: Sweet protein: The term “sweet protein” as used herein refers to a protein having an intense sweet taste which is suitable for sweetening of food, beverage and/or medication products for human consumption. On weight basis, a sweet protein according to the present invention may be at least 100, preferably at least 200, more preferably at least 500, and even more preferably at least 1,000, times sweeter than sucrose, when compared to a 2% solution of sucrose. For purposes of the present invention, comparison of sweetness may be determined by testing human perception of sweetness of the protein against known controls using varied concentrations of the protein being diluted in water or in an aqueous solution which avoid adsorption on surfaces, such as 20% skim milk, e.g., as described in Example 3 of the present application. A test taste panel of six persons was used to evaluate the brazzein sweetness compared to sucrose. The brazzein batch from Example 2 was diluted 30 fold to a final conc. of 50 mg/l with 20% skim milk in order to avoid adsorption on surfaces. The sweetness was estimated using a standard of 0%, 0.68%, 1.37%, 2.74%, 5.48%, 11.0%, 21.9% (w/v) sucrose diluted in 20% (v/v) skim milk. The sweetness of this 50 mg/l brazzein dilution corresponded to an average sweetness of 2.57% (w/v) sucrose±0.55% sucrose (SD). Thus, the brazzein batch is 510 times sweeter than sucrose on weight basis at the present condition. The sweet taste delay of the brazzein was estimated to be 1.5 sec±1.2 sec (SD).

[3] = test system: taste panel of three persons; experiment: pH profile of the sweet taste of brazzein compared to sucrose, in 5 g/l whey protein; format: in vivo, human; settings: 75 mg/l brazzein
Method: A taste panel of three persons estimated the pH profile of the sweet taste of brazzein compared to sucrose. 5 g/l whey protein (Lacprodan DI-9224, Arla Foods Ingredients) with 0%, 2%, 4%, 6%, 8%, 10%, 12%, 14% and 16% sucrose or 75 mg/l brazzein was adjusted with H3PO4, Na2HPO4 or NaOH to a final pH of […], 4.0, 5.0, 7.0 and 9.0.

[4] = test system: test taste panel of three persons; experiment: Sucrose replacement in yoghurt drink, sweetness in 23% Cheasy A38; format: in vivo, human
Method: A test taste panel of three persons was made to evaluate brazzein sweetness in yoghurt drink. The yoghurt product Cheasy A38 (Arla Foods), which contains 0.1% milk fat, 4.3% milk protein, was diluted to a final conc. of 1% milk protein, with sucrose or a solution of brazzein produced in A. oryzae. […] Thus, at the present condition in 23% Cheasy A38, the brazzein batch is 930 times sweeter than sucrose on weight basis.
Furthermore, the sweetness of brazzein and sucrose were additive as 6% sucrose+75 mg/l brazzein, taste like 12.7%±0.6% (SD) sucrose in 23% Cheasy A38.

[5] = background statement; cited from earlier work
[6] = background statement; cited from earlier work; remark: listed apart in the source

Molecule | sweetness relative to the form having an N-terminal pyroglutamate [1] | times sweeter than sucrose on weight basis [2] [times] | sweet taste delay ([2]; SD 1.2 sec) [s] | average sweetness corresponding to sucrose ([2]; panel of six, SD 0.55% sucrose) | sucrose equivalent sweet taste ([3]; pH 2.0) [% sucrose] | sucrose equivalent sweet taste ([3]; pH 3.0) [% sucrose] | sucrose equivalent sweet taste ([3]; pH 4.0) [% sucrose] | sucrose equivalent sweet taste ([3]; pH 5.0) [% sucrose] | sucrose equivalent sweet taste ([3]; pH 7.0) [% sucrose] | sucrose equivalent sweet taste ([3]; pH 9.0) [% sucrose] | times sweeter than sucrose on weight basis ([4]; 75 mg/l brazzein in 23% Cheasy A38) [times] | sweetness corresponding to sucrose ([4]; 75 mg/l brazzein in 23% Cheasy A38, SD 1%) [% sucrose] | sweetness of brazzein plus sucrose, tastes like sucrose ([4]; 6% sucrose + 75 mg/l brazzein in 23% Cheasy A38, SD 0.6%) [% sucrose] | sweet-taste delay sensation ([4]; in the presence of 6% sucrose, 23% Cheasy A38) | solubility in water [5] [mg/mL] | heat stability [6]
53-amino acid form: Natural brazzein form lacking the N-terminal glutamine or pyroglutamate; amino acids 2 to 54 of SEQ ID NO: 2 (QFTTILSIGITVFGLANTGAFAAPQPVPEAYAVSDPEAHPDDFAGMDANQLQK) | twice as sweet |  |  |  |  |  |  |  |  |  |  |  |  |  |  | 
B1 |  | 510 | 1.5 | 2.57 % (w/v) sucrose | 6.0 | 6.0 | 4.3 | 6.3 | 5.0 | 2.7 | 930 | 7 | 12.7 | almost removed | > 50 | can withstand heat
